Measured values reported in IntAct's records for PubMed 35512704.

B1: Mothers against decapentaplegic homolog 4 (Homo sapiens), Q13485 (parent)
chain: MDNMSITNTPTSNDACLSIVHSLMCHRQGGESETFAKRAIESLVKKLKEKKDELDSLITAITTNGAHPSKCVTIQRTLDGRLQVAGRKGFPHVIYARLWRWPDLHKNELKHVKYCQYAFDLKCDSVCVNPYHYERVVSPGIDLSGLTLQSNAPSSMMVKDEYVHDFEGQPSLSTEGHSIQTIQHPPSNRASTETYSTPALLAPSESNATSTANFPNIPVASTSQPASILGGSHSEGLLQIASGPQPGQQQNGFTGQPATYHHNSTTTWTGSRTAPYTPNLPHHQNGHLQHHPPMPPHPGHYWPVHNELAFQPPISNHPAPEYWCSIAYFEMDVQVGETFKVPSSCPIVTVDGYVDPSGGDRFCLGQLSNVHRTEAIERARLHIGKGVQLECKGEGDVWVRCLSDHAVFVQSYYLDREAGRAPGDAVHKIYPSAYIKVFDLRQCHRQMQQQAATAQAAAAAQAAAVAGNIPGPGSVGGIAPAISLSAAAGIGVDDLRRLCILRMSFVKGWGPDYPRQSIKETPCWIEIHLHRALQLLDEVLHTMPIADPQPLD
partner: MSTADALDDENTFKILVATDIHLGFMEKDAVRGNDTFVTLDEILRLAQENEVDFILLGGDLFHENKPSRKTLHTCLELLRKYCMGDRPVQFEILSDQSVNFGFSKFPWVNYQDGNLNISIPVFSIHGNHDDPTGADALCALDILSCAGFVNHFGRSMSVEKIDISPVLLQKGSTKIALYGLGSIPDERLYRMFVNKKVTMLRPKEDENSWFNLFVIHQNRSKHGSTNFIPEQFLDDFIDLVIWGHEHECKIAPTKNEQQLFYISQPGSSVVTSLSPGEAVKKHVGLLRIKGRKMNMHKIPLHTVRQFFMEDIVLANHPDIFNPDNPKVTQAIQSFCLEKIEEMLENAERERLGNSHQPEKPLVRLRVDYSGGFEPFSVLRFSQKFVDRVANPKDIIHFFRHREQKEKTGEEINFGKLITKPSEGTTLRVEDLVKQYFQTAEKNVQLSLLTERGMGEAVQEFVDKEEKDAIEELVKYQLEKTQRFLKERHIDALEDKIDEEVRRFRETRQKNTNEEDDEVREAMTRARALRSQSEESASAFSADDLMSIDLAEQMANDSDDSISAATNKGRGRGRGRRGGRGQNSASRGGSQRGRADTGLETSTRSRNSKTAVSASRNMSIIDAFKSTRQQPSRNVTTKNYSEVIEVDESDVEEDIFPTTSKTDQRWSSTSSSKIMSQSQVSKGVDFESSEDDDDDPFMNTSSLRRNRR
B2: Mothers against decapentaplegic homolog 4 (Homo sapiens), Q13485 (parent)
chain: B1 chain
partner: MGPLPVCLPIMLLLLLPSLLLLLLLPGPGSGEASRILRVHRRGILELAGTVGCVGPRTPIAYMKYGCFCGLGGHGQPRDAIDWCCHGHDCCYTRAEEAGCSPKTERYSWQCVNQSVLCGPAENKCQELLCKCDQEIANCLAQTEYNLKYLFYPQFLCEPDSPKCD
B3: Mothers against decapentaplegic homolog 4 (Homo sapiens), Q13485 (parent)
chain: B1 chain
partner: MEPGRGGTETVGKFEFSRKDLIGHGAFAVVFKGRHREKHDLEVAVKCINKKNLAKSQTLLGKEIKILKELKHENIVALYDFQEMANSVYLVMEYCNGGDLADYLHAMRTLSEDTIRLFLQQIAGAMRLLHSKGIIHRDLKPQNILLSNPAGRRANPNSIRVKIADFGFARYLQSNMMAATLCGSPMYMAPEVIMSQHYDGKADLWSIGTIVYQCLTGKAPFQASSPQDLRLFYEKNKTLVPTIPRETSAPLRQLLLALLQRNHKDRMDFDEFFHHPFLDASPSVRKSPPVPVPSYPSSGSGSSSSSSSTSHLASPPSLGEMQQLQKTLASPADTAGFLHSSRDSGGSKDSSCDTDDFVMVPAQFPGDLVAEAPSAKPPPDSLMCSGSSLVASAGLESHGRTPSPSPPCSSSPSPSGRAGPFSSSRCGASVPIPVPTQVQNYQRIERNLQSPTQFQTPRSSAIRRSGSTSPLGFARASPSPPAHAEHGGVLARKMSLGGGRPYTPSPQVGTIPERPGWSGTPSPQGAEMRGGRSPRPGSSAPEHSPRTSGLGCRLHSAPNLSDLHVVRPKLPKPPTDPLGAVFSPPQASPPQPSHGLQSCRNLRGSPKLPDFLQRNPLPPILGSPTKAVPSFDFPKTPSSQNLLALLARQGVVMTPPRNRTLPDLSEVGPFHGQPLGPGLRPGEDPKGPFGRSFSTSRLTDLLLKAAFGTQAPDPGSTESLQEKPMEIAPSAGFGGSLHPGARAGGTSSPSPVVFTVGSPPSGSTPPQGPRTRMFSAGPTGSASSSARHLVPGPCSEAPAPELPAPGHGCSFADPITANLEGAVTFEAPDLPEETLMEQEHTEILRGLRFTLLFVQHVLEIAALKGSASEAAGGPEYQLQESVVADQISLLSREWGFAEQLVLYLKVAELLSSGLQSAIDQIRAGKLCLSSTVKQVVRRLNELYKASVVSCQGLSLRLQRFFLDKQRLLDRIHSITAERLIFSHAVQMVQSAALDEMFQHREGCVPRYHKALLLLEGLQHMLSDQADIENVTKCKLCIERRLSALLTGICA
B4: Mothers against decapentaplegic homolog 4 (Homo sapiens), Q13485 (parent)
chain: B1 chain
partner: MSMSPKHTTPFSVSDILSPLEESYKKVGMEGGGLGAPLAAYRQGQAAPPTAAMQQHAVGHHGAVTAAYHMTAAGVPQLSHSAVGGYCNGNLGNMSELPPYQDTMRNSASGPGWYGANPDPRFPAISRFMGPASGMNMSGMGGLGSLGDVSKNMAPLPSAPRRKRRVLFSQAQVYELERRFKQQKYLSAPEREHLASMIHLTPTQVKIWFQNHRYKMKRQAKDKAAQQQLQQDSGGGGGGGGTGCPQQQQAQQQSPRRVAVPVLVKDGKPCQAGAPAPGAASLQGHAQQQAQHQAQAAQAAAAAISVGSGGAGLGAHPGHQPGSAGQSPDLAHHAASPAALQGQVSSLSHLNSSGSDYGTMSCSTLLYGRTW
B5: Mothers against decapentaplegic homolog 4 (Homo sapiens), Q13485 (parent)
chain: B1 chain
partner: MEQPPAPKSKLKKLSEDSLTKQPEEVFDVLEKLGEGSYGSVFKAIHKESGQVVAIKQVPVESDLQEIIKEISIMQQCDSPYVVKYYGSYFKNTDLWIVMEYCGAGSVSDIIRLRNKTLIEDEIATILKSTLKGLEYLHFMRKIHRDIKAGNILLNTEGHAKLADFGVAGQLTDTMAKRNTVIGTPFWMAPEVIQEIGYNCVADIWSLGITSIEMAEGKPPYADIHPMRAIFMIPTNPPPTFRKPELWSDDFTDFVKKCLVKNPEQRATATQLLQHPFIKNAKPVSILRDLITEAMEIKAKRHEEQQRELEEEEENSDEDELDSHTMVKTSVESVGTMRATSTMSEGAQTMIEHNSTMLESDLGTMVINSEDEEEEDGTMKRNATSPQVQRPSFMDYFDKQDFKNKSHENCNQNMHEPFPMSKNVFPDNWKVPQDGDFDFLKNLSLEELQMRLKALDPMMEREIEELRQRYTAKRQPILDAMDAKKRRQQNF
B6: Mothers against decapentaplegic homolog 4 (Homo sapiens), Q13485 (parent)
chain: B1 chain
partner: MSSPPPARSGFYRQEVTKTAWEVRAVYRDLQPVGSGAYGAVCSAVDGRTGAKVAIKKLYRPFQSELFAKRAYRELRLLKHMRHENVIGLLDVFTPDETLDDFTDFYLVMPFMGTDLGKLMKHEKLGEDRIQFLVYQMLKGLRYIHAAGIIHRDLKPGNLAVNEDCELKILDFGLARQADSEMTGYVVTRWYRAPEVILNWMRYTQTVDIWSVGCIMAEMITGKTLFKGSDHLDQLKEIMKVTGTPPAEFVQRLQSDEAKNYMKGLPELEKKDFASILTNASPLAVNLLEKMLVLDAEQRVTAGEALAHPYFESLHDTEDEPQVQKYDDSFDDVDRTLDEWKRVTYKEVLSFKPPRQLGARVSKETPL
B7: Mothers against decapentaplegic homolog 4 (Homo sapiens), Q13485 (parent)
chain: B1 chain
partner: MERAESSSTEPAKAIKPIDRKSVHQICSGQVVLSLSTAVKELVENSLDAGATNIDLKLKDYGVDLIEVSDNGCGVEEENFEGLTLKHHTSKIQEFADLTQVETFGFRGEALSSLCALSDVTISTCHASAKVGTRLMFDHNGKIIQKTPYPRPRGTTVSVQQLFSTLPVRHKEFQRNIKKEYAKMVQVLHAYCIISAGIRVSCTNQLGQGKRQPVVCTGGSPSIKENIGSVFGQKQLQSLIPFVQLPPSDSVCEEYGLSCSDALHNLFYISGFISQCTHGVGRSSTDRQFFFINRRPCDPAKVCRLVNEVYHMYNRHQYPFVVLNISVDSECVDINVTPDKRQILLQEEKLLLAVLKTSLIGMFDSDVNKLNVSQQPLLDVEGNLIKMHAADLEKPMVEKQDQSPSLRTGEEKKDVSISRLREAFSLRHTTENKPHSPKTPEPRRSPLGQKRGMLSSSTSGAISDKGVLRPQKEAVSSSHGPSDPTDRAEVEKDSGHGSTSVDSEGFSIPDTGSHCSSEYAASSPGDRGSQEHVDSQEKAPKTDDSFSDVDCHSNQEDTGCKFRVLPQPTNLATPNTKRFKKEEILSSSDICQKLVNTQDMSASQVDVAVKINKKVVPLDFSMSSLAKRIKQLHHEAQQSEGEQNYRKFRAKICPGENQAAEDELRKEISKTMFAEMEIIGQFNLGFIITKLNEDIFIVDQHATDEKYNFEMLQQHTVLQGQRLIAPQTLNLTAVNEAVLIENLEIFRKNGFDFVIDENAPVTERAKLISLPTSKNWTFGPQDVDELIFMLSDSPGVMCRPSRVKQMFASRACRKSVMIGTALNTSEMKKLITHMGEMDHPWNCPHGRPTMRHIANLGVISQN

Variants of: B1
Conditions: with mre11_human MRE11, P49959

| effect of a mutation on the interaction | Variant |
| --- | --- |
| with no effect | R361C |

Variants of: B1
Conditions: with mre11_human MRE11, P49959
Remark: another data set of the same source

| effect of a mutation on the interaction | Variant |
| --- | --- |
| with no effect | D351H |

Variants of: B1
Conditions: with mre11_human MRE11, P49959
Remark: another data set of the same source

| effect of a mutation on the interaction | Variant |
| --- | --- |
| with no effect | G386D |

Variants of: B2
Conditions: with pa2gx_human PLA2G10, O15496

| effect of a mutation on the interaction | Variant |
| --- | --- |
| with no effect | G386D |

Variants of: B2
Conditions: with pa2gx_human PLA2G10, O15496
Remark: another data set of the same source

| effect of a mutation on the interaction | Variant |
| --- | --- |
| with no effect | R361C |

Variants of: B2
Conditions: with pa2gx_human PLA2G10, O15496
Remark: another data set of the same source

| effect of a mutation on the interaction | Variant |
| --- | --- |
| with no effect | D351H |

Variants of: B3
Conditions: with ulk1_human ULK1, O75385

| effect of a mutation on the interaction | Variant |
| --- | --- |
| with no effect | G386D |

Variants of: B3
Conditions: with ulk1_human ULK1, O75385
Remark: another data set of the same source

| effect of a mutation on the interaction | Variant |
| --- | --- |
| with no effect | R361C |

Variants of: B3
Conditions: with ulk1_human ULK1, O75385
Remark: another data set of the same source

| effect of a mutation on the interaction | Variant |
| --- | --- |
| with no effect | R361H |

Variants of: B3
Conditions: with ulk1_human ULK1, O75385
Remark: another data set of the same source

| effect of a mutation on the interaction | Variant |
| --- | --- |
| with no effect | D351H |

Variants of: B4
Conditions: with nkx21_human NKX2-1, P43699

| effect of a mutation on the interaction | Variant |
| --- | --- |
| with no effect | R361H |

Variants of: B4
Conditions: with nkx21_human NKX2-1, P43699
Remark: another data set of the same source

| effect of a mutation on the interaction | Variant |
| --- | --- |
| with no effect | R361C |

Variants of: B4
Conditions: with nkx21_human NKX2-1, P43699
Remark: another data set of the same source

| effect of a mutation on the interaction | Variant |
| --- | --- |
| with no effect | G386D |

Variants of: B4
Conditions: with nkx21_human NKX2-1, P43699
Remark: another data set of the same source

| effect of a mutation on the interaction | Variant |
| --- | --- |
| with no effect | D351H |

Variants of: B5
Conditions: with stk3_human STK3, Q13188

| effect of a mutation on the interaction | Variant |
| --- | --- |
| with no effect | D351H |

Variants of: B5
Conditions: with stk3_human STK3, Q13188
Remark: another data set of the same source

| effect of a mutation on the interaction | Variant |
| --- | --- |
| with no effect | R361C |

Variants of: B5
Conditions: with stk3_human STK3, Q13188
Remark: another data set of the same source

| effect of a mutation on the interaction | Variant |
| --- | --- |
| with no effect | R361H |

Variants of: B5
Conditions: with stk3_human STK3, Q13188
Remark: another data set of the same source

| effect of a mutation on the interaction | Variant |
| --- | --- |
| with no effect | G386D |

Variants of: B6
Conditions: with mk12_human MAPK12, P53778

| effect of a mutation on the interaction | Variant |
| --- | --- |
| with no effect | G386D |

Variants of: B6
Conditions: with mk12_human MAPK12, P53778
Remark: another data set of the same source

| effect of a mutation on the interaction | Variant |
| --- | --- |
| with no effect | R361H |

Variants of: B6
Conditions: with mk12_human MAPK12, P53778
Remark: another data set of the same source

| effect of a mutation on the interaction | Variant |
| --- | --- |
| with no effect | R361C |

Variants of: B6
Conditions: with mk12_human MAPK12, P53778
Remark: another data set of the same source

| effect of a mutation on the interaction | Variant |
| --- | --- |
| with no effect | D351H |

Variants of: B7
Conditions: with pms2_human PMS2, P54278

| effect of a mutation on the interaction | Variant |
| --- | --- |
| with no effect | G386D |
